Data on 3 compounds can be found in patent US20250281653A1, “METHODS FOR TREATING PROSTATE CANCER WITH RADIOPHARMACEUTICALS” (ARTBIO, Inc., priority 2024, published 2025).

The nature of data set [1]: Baseline F18-PSMA-PET/CT: normal tissue evaluation at screening. To be noted: individual participants. Type of data set: in vivo, human. The method, then: Participants underwent a standard of care diagnostic ^18F-PSMA-PET/CT at baseline (i,e, within six weeks prior to administration of ^212Pb-Compound 1).
PSMA-PET/CT was conducted using the radiotracer ^18F-PSMA-1007: dose 2.5 MBq/kg (minimum 200 MBq, maximum 300 MBq) with PET acquisition performed approximately 120 minutes post-injection.
Each patient received a baseline PSMA-PET/CT evaluation utilizing an F18-PSMA-PET tracer during the screening period (i.e. prior to ^212Pb-Compound 1 administration).
The pattern of PSMA-PET CT tracer uptake in normal organs is within expectations in each case; with notable uptake in the salivary glands (SUVmax range 20.06-30.7), kidneys (SUVmax range 18.7-35.2) and liver (SUVmax range 14.5-25.5).

The conditions of data set [2]: in vivo; cited from earlier work.
Details of data set [3]: species or system human. To be noted: in vivo. Here is the method: (§1) Study drug administration: a single injection of 10 MBq for ^212Pb-Compound 1 was administered for each participant. Administration was by slow bolus IV injection via a 3-way adapter coupled to a conventional isotonic saline solution. • The timepoint of injection of ^212Pb-Compound 1 was defined as Day 0, 0 hours. […] Full blood and plasma were measured separately to investigate ligand in vivo stability. […]
(§2) • Non-invasive gamma camera imaging with both planar gamma imaging (whole body scintigraphy) and SPECT/CT was performed at 2 timepoints following injection of ^212Pb-Compound 1: • 1-3 hours and 16-24 hours • The planar gamma camera imaging was acquired immediately before the SEPCT/CT imaging • Performed on a Siemens Symbia Intevo Bold hybrid scanner using a medium energy low penetration (MELP) or high energy (HE) collimator. • The same scanner was used for all acquisitions of all patients in the study. • Scanner room background radiation was measured 0.5 m from the SPECT/CT scanner table, over a time period of one minute, before the participant entered the scanner room. […]

Details of data set [4]: species or system human. Conditions: in vivo. The method, then:
as §1, §2
This is another data set of the same source.

Details of data set [5]: species or system human. Conditions: in vivo. Here is the method: The sample size was three participants.
Study drug administration: a single injection of 10 MBq for ^212Pb-Compound 1 was administered for each participant. Administration was by slow bolus IV injection via a 3-way adapter coupled to a conventional isotonic saline solution. • The timepoint of injection of ^212Pb-Compound 1 was defined as Day 0, 0 hours. Imaging, whole-body probe and blood assessments of clearance were performed at the following timepoints: • Gamma camera imaging (both planar and SPECT/CT) was scheduled 1-3 hours and 16-24 hours post injection. • Clearance was assessed with blood sampling and whole-body probe measurements at the following timepoints: 15 min after dose (+/−15 min window), 1 h after dose (+1 h window), 4 h after dose (+2 h window), 16 h after dose (+8 h window). Full blood and plasma were measured separately to investigate ligand in vivo stability. Follow-up: Patients were followed-up for safety and tolerability for 28 days post-administration of ^212Pb-Compound 1, with visits on Day 14 and Day 28. Adverse events were reported per CTCAE v5 from time of informed consent until end of follow-up. Patients were followed-up for efficacy biomarkers (PSA, ALP) for 28 days post-administration of ^212Pb-Compound 1.
All 3 patients consented and administered ^212Pb-Compound 1 subsequently completed the planned safety follow up period (no withdrawals from the clinical trial).
This is another data set of the same source.

The structures appear in SMILES notation. Where “and” joins values, the source holds several entries; their conditions need not be identical. Equal entries are not always repeated.

For `O=C(O)CC[C@H](NC(=O)N[C@@H](CCCCNC(=O)[C@H](Cc1ccc2ccccc2c1)NC(=O)c1ccc(CNC(=O)[C@H](CCC(=O)O)NC(=O)[C@H](CCC(=O)O)NC(=O)c2ccc([18F])nc2)cc1)C(=O)O)C(=O)O` [Compound F18-PSMA-PET], in data set [1], the SUV max, Bladder, including contents was 8.3 and 2.8 and 3; the SUV max, Blood pool is 1.2 and 0.8 and 1.3; the SUV max, Bone Marrow is 1.8 and 1.3 and 1; the SUV max, Kidneys is 35.2 and 26.8 and 18.7. Moreover, in data set [1], the SUV max, Liver is 14.5 and 25.5 and 14.8; the SUV max, Salivary gland is 30.7 (2×) and 20.6; the SUV max, Spleen was 16.2 and 7.2 and 15.3; the SUV mean, Bladder, including contents is 6.2 and 2.3 (2×). In addition, in data set [1], the SUV mean, Blood pool is 0.7 and 0.6 and 1.1; the SUV mean, Bone Marrow is 1.3 and 0.9 and 0.7; the SUV mean, Kidneys is 19.2 and 16.1 and 11.4; the SUV mean, Liver is 11.3 and 21.8 and 12.5. In addition, in data set [1], the SUV mean, Salivary gland is 18.5 and 13 and 19.8; the SUV mean, Spleen was 12.6 and 6.1 and 13.7. In data set [1] (listed as PSMA-PET CT tracer), this compound showed an SUV max, Kidneys of 18.7 to 35.2 and an SUV max, Liver of 14.5 to 25.5.
In the case of `O=C([O-])CN1CCN(CC(=O)[O-])CCN(CC(=O)NCC2CCC(C(=O)N[C@@H](Cc3ccc4ccccc4c3)C(=O)NCCCC[C@H](NC(=O)N[C@@H](CCC(=O)O)C(=O)O)C(=O)O)CC2)CCN(CC(=O)[O-])CC1.[177Lu+3]` (stereo partly shown) [^177Lu-PSMA-617, lutetium Lu 177 vipivotide tetraxetan], the “Dry mouth (i.e., xerostomia), proportion of population” value in data set [2] is reported as 38.8%.
Regarding `NC(=O)CN1CCN(CC(N)=O)CCN(CC(N)=O)C(Cc2ccc(NC(=S)NC[C@H]3CC[C@H](C(=O)N[C@@H](Cc4ccc5ccccc5c4)C(=O)NCCCC[C@H](NC(=O)N[C@@H](CCC(=O)O)C(=O)O)C(=O)O)CC3)cc2)CN(CC(N)=O)CC1` (stereo partly shown) [^212Pb-Compound 1, metal not drawn], the “Participants with ^212Pb-Compound 1 uptake by the liver” value in data set [3] is reported as “one participant at the 1 hr time point”. Moreover, the “^212Pb-Compound 1 uptake in retrocaval lymph node metastasis (most PSMA-avid lesion)” value in data set [4] is recorded as “uptake at the 1 hour time point for one lesion”. In addition, in data set [5], the “Adverse reactions, SAEs, SUSARs or deaths” value is on record as “No adverse reactions, serious adverse events (SAEs), suspected unexpected serious adverse events (SUSARs) or deaths were reported”; the “CTCAE grade of the TEAE abdominal pain” value amounted to 2; the “Differences or trends in hematology, biochemistry and urinalysis from baseline (incl. ALT, AST, bilirubin, albumin, egfr, creatinine)” value is on record as “no clinically significant differences or trends”; the “ECOG performance score at all visits evaluated” value was 1. Besides, in data set [5], the “ECOG performance status, change from baseline to end of study visit” value was “remained unchanged”; the “Individual measurements of hematological and clinical chemistry parameters” value is listed as “within their normal reference ranges”; the “Investigator-assessed relationship of all TEAEs to ^212Pb-Compound 1” value is “probably unrelated”; the “Number (%) of Participants with TEAE: Abdominal pain” value is on record as 1 (33). Also, in data set [5], the “Number (%) of Participants with TEAE: Constipation” value was 1 (33); the “Number (%) of Participants with TEAE: Erythema” value is 1 (33); the “Number (%) of Participants with TEAE: General disorders and administration site conditions” value is given as 1 (33); the “Number (%) of Participants with TEAE: Injury, poisoning and procedural complications” value is 1 (33). Moreover, in data set [5], the “Number (%) of Participants with TEAE: Localized oedema” value was 1 (33); the “Number (%) of Participants with TEAE: Skin and subcutaneous tissue disorders” value is given as 1 (33); the “Number (%) of Participants with TEAE: Tooth fracture” value was 1 (33); the “Number (%) of Participants with TEAE: Vomiting” value was 1 (33). For the same compound, in data set [5], the “Performance status (ECOG)” value came out at 1 and the “Risk of xerostomia inferred from absent salivary gland uptake” value is “lower risk of xerostomia”.
